Experimental data: the supplement of paper PMC10065799, “High-throughput profiling of sequence recognition by tyrosine kinases and SH2 domains using bacterial peptide display” (eLife, 2023)

How the values were obtained:
Fes = Fes (UniProt P07332); experiment: phosphorylation enrichment, bacterial display (enrichment ratio); higher = better substrate or ligand; peptides without Tyr show the background
Jak2 = Jak2 (UniProt O60674); experiment: as above
c-Src = experiment: as above
Fyn = Fyn (UniProt P06241); experiment: as above
FGFR3 = FGFR3 (UniProt P22607); experiment: as above
c-Abl (mouse) = experiment: as above
EPHB1 = EPHB1 (UniProt P54762); experiment: as above
FGFR1 = FGFR1 (UniProt P11362); experiment: as above
Hck = Hck (UniProt P08631); experiment: as above
AncSZ = experiment: as above
EPHB2 = EPHB2 (UniProt P29323); experiment: as above
MERTK = MERTK (UniProt Q12866); experiment: as above
Fer (mouse) = experiment: as above
c-Src SH2 = experiment: SH2 binding enrichment of the phosphorylated peptide, bacterial display (enrichment ratio); higher = better substrate or ligand; peptides without Tyr show the background
SHP2-C SH2 = experiment: as above
Grb2 SH2 = Grb2 SH2 (UniProt P62993); experiment: as above
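Wherever SH2 binding enrichment of the phosphorylated peptide, bacterial display is given: peptide library displayed on the E. coli surface as eCPX fusions, selected cells deep-sequenced, score is each peptide's frequency after selection divided by its frequency in the input.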
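Wherever phosphorylation enrichment, bacterial display is given: 11-residue human phosphosite peptides and single-mutation variants displayed on the E. coli surface, counted by deep sequencing, each peptide's frequency after selection divided by its frequency in the unselected input library; frequency after pTyr selection over input frequency; kinase dosed for 20-30% of maximal phosphorylation in three min.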

FGFR3, sequence (P22607 whole entry, looked up): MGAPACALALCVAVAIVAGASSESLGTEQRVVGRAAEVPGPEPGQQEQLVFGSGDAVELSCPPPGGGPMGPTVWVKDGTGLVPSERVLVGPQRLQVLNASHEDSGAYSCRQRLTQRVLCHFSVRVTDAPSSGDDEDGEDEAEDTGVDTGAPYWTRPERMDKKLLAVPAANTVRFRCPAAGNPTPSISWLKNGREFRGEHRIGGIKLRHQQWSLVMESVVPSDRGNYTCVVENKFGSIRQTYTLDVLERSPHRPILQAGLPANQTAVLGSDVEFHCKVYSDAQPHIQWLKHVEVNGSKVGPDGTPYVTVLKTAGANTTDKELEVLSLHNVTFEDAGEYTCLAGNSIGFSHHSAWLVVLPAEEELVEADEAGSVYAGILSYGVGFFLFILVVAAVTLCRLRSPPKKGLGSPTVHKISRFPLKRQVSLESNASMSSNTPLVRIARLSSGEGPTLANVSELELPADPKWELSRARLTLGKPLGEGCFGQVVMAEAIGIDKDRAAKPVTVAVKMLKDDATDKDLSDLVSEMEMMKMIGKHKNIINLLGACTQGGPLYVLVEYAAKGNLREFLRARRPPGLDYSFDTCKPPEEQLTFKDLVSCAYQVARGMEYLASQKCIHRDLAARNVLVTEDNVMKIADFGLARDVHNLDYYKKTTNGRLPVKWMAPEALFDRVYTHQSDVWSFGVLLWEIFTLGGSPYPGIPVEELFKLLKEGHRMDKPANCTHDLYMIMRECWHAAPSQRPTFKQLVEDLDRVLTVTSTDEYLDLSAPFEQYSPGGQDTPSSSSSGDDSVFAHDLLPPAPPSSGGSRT
EPHB1, sequence (P54762 whole entry, looked up): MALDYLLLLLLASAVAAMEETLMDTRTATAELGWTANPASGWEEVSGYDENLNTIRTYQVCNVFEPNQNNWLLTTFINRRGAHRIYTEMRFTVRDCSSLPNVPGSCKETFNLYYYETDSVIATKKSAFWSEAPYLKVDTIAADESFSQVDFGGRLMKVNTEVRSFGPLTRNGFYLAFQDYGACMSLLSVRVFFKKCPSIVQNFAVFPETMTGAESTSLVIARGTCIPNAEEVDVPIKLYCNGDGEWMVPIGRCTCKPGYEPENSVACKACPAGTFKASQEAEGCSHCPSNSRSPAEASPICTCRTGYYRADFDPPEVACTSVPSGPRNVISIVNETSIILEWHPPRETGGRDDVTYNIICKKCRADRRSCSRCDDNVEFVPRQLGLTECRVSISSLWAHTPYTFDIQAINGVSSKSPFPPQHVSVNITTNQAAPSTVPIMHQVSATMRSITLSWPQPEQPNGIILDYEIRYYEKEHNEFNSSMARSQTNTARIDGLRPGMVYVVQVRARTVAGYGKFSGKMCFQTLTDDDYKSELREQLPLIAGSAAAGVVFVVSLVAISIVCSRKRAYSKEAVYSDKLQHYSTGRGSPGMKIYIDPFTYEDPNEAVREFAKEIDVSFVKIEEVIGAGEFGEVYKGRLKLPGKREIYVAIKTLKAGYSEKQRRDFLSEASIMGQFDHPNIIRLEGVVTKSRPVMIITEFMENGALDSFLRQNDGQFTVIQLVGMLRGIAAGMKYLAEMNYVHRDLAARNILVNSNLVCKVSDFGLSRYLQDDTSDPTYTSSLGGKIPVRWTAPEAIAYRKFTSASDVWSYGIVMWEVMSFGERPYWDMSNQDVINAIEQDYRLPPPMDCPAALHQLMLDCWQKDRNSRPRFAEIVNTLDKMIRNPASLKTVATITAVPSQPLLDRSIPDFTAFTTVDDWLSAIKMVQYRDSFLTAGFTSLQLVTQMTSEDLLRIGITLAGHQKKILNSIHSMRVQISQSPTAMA
Jak2, sequence (O60674 whole entry, looked up): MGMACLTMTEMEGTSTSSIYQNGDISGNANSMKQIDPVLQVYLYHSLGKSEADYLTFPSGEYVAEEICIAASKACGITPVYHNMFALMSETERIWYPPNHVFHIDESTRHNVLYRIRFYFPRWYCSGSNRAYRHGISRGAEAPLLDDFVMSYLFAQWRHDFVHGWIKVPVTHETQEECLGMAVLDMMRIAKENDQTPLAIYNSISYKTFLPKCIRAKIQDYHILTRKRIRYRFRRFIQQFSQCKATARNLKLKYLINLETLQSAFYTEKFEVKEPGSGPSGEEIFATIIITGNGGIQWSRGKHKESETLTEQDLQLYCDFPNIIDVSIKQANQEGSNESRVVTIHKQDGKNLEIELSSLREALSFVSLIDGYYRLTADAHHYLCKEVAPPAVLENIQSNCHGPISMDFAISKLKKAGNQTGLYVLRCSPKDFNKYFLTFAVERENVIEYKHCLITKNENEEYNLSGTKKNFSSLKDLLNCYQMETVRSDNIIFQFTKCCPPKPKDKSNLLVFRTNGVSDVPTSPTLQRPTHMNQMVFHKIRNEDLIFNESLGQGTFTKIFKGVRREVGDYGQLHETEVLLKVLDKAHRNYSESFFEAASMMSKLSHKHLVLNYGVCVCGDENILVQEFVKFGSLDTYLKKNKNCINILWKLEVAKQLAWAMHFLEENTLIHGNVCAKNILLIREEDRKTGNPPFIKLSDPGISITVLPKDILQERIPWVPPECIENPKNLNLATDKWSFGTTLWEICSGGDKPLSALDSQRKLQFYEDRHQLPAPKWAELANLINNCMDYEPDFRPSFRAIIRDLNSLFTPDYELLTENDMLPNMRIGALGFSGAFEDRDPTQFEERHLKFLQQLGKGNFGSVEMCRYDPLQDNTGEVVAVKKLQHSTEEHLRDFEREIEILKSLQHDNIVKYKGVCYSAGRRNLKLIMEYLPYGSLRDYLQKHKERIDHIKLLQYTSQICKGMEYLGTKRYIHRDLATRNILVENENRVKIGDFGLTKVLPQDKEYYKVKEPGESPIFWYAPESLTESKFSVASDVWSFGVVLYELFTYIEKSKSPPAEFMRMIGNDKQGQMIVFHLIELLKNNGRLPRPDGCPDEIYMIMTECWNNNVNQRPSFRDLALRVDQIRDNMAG
Hck, sequence (P08631 whole entry, looked up): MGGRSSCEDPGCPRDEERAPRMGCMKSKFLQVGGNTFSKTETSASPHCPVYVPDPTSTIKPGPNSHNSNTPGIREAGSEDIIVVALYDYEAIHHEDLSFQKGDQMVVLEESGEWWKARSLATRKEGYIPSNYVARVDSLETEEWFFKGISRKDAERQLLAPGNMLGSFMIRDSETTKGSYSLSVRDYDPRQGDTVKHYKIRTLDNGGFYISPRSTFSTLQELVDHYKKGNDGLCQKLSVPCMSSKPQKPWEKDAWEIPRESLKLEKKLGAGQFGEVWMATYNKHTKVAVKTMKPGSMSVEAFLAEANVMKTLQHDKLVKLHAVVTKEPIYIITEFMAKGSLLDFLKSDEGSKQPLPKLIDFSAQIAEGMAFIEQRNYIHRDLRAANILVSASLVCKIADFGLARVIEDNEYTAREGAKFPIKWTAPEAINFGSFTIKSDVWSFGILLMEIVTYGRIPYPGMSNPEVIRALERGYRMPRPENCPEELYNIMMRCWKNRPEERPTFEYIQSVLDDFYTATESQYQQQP
Fyn, sequence (P06241 whole entry, looked up): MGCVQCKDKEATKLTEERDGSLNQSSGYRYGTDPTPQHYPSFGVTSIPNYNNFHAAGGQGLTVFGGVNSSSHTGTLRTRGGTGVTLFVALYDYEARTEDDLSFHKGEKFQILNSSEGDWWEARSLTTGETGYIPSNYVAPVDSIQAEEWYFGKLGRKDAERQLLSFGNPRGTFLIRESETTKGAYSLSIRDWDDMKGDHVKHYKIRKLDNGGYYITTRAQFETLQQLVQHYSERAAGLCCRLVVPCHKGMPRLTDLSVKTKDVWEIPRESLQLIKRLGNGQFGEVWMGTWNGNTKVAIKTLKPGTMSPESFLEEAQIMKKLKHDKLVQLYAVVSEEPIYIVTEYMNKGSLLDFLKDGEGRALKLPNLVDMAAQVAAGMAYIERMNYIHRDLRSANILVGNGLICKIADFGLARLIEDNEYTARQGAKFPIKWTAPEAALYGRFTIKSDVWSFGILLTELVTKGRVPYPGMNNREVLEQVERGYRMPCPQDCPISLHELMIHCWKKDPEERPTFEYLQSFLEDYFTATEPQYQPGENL
FGFR1, sequence (P11362 whole entry, looked up): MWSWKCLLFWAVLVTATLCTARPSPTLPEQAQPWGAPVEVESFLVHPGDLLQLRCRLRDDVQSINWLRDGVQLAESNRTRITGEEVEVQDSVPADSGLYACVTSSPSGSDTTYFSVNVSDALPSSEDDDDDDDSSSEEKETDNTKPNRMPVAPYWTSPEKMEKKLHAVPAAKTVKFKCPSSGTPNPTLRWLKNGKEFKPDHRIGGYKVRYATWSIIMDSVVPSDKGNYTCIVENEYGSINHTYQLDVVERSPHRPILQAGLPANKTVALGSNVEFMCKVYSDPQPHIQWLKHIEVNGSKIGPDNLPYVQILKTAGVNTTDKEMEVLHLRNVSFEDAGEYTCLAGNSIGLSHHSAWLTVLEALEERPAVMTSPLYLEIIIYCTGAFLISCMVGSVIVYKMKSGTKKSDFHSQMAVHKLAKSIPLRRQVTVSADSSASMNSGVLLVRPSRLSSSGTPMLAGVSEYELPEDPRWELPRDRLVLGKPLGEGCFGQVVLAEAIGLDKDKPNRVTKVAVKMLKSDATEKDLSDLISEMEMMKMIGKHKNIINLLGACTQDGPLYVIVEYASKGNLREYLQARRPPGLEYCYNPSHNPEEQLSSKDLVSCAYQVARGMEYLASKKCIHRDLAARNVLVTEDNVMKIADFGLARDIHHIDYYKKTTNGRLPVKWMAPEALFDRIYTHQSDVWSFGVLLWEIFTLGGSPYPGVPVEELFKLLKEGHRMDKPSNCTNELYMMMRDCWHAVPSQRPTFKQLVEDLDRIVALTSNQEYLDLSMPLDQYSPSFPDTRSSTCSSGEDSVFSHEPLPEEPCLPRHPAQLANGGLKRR
Grb2 SH2, sequence (P62993 whole entry, looked up, the tested form may be a part): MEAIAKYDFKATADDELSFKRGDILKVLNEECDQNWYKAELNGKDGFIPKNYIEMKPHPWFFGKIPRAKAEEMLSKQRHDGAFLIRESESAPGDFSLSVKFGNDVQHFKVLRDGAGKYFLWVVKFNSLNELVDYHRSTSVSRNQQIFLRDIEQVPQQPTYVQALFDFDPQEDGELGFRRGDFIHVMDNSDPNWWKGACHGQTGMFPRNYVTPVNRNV

| Sequence | phosphorylation enrichment (Fes) | phosphorylation enrichment (Jak2) | phosphorylation enrichment (c-Src) | phosphorylation enrichment (Fyn) | phosphorylation enrichment (FGFR3) | phosphorylation enrichment (c-Abl (mouse)) | phosphorylation enrichment (EPHB1) | phosphorylation enrichment (FGFR1) | phosphorylation enrichment (Hck) | phosphorylation enrichment (AncSZ) | phosphorylation enrichment (EPHB2) | phosphorylation enrichment (MERTK) | phosphorylation enrichment (Fer (mouse)) | SH2 binding enrichment (c-Src SH2) | SH2 binding enrichment (SHP2-C SH2) | SH2 binding enrichment (Grb2 SH2) |
| --- | --- | --- | --- | --- | --- | --- | --- | --- | --- | --- | --- | --- | --- | --- | --- | --- |
| SMAKFYASEIA [ACADSB_Y373_YF] | 0.803 | 0.619 | 0.464 | 0.434 | 0.604 | 0.588 | 0.403 | 0.513 | 0.518 | 0.686 | 0.472 | 0.437 | 0.61 | 0.393 | 0.674 | 0.788 |
| TTSQLYDAVPI [PDPK1_Y9] | 1.41 | 0.849 | 7.33 | 10.2 | 0.786 | 1.31 | 13.4 | 0.611 | 11.5 | 1.28 | 17.1 | 13 | 19.6 | 0.485 | 0.848 | 0.728 |
| KAESWYQTKFE [KRT75_Y342_E337K_YF] | 1.07 | 0.871 | 0.662 | 0.518 | 0.538 | 0.839 | 0.567 | 0.468 | 0.543 | 0.873 | 0.482 | 0.6 | 0.594 | 0.991 | 0.72 | 0.915 |
| ELPEKYSQNIY [PKP2_Y626] | 0.921 | 0.891 | 0.575 | 0.762 | 0.763 | 0.658 | 0.459 | 0.52 | 0.905 | 0.905 | 0.526 | 0.384 | 0.475 | 0.419 | 0.555 | 0.891 |
| TFFQMYDKGLV [IARS2_Y231_YF] | 1.14 | 1.03 | 0.537 | 0.566 | 0.623 | 0.734 | 0.531 | 0.52 | 1.06 | 0.862 | 0.569 | 0.542 | 0.57 | 0.526 | 0.7 | 0.99 |
| FTGNTYRVGDT [FN1_Y106_YF] | 0.667 | 0.499 | 0.476 | 0.424 | 0.472 | 0.479 | 0.382 | 0.372 | 0.293 | 0.634 | 0.464 | 0.394 | 0.396 | 0.479 | 0.853 | 0.893 |
| TRSCKYLLLSM [NF1_Y491_Y489C] | 0.954 | 0.864 | 0.39 | 0.441 | 0.552 | 0.614 | 0.521 | 0.53 | 0.549 | 0.823 | 0.621 | 0.512 | 0.416 | 1.04 | 1.58 | 1.41 |
| LDVDVYGPSVP [NUBPL_Y109] | 1.28 | 0.829 | 1.33 | 1.47 | 0.72 | 1.4 | 0.622 | 0.483 | 1.77 | 1.06 | 0.536 | 0.498 | 1.2 | 0.498 | 0.551 | 0.868 |
